Laboratory results reported in patent US20220073920.
Read-outs that look alike come from different tables or passages of the source.

Tests used:
[1] = test system: Human adenovirus type 2 whole virion (HAdV-2) (Human adenovirus 2); details: ELASA; DPBS + 3 mM MgCl2 + 20 mM NaCl (printed NaCl2), pH 7.4, room temperature; n=7
[2] = test system: Human adenovirus type 2 whole virion (HAdV-2) (Human adenovirus 2); details: ELASA; DPBS + 3 mM MgCl2 + 20 mM NaCl (printed NaCl2), pH 7.4, room temperature; n=6

GTGCCAGCTATGCCATTGGGCGGGTCGTCCAATTCGAGAGGTCCCCTAGCGTCTATCTCTGCTGC [aptamer 20]
Kd [1]: 75.9 nM

GTGCCAGCTATGCCATTGGGGGACAATATCGCAGTGCATCTTCCTCTAGCGTCTATCTCTGCTGC [aptamer 10]
Kd [2]: 3.6 nM
